Measurements published in patent US20200317768A1 (published 2020).
Substitutions are numbered along the chain they refer to. Names and notes keep the numbering of the source. Each block holds one binder with its values, some of them ahead of it.

Tests used:
[1] = molecular target: T1, soluble mouse FcγRII, His-tagged (mouse, UniProt P08101 30-210, limits assumed); test: SPR, mouse FcgRII-His captured, antigen-antibody complex injected, pH7.4, 25C
T1 construct: Captured on the chip by an anti-His antibody
T1 sequence (looked up): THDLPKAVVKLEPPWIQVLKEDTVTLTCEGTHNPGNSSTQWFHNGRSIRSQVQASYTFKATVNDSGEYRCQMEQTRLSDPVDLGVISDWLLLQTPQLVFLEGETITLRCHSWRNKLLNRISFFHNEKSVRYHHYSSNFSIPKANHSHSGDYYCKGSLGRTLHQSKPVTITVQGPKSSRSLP

[2] = molecular target: T2, cynomolgus monkey FcγRIIb extracellular domain, C-terminal His-tag (cynomolgus monkey); test: SPR; FcgR bound per captured antibody, normalized to SG1
T2 construct: also called cyno FcγRIIb; cynoFcγRIIb
T2 chain: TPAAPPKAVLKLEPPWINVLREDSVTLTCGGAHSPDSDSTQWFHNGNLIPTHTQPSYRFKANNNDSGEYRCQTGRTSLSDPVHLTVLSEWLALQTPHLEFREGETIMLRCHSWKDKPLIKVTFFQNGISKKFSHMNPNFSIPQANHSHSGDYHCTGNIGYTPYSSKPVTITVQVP

[3] = molecular target: T3, cynomolgus monkey FcγRIIa1 extracellular domain, C-terminal His-tag (cynomolgus monkey); test: as above
T3 construct: also called cyno FcγRIIa1; FcgRIIa1
T3 chain: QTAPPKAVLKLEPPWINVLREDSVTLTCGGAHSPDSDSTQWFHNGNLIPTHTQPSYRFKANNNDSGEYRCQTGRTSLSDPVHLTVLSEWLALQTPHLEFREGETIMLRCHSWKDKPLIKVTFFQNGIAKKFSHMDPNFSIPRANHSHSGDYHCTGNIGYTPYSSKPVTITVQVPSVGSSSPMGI

[4] = molecular target: T4, cynomolgus monkey FcγRIIa2 extracellular domain, C-terminal His-tag (cynomolgus monkey); test: as above
T4 construct: also called cyno FcγRIIa2; FcgRIIa2
T4 chain: T3 chain with P95T, T121A, I127K, A128S, K130N, D135N, R142Q

[5] = molecular target: T5, human FcγRIIaR extracellular domain, C-terminal His-tag (human, UniProt P12318 34-217); test: SPR; KD of SG1 / KD of variant;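 note: relative to parent M103205H795-SG1 carrying the SG1 human heavy chain constant region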
T5 construct: also called human FcγRIIa (type R); FcgRIIaR
T5 chain: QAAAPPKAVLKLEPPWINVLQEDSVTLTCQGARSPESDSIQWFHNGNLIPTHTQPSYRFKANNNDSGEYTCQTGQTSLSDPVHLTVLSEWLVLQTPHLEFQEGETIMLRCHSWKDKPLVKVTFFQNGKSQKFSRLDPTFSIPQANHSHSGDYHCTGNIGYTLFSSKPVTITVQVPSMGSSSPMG
Description: (§1) The kinetic analysis of interactions between these antibodies and FcγR was carried out using BIACORE® T200 or BIACORE® 4000 (GE Healthcare). HBS-EP+ (GE Healthcare) was used as the running buffer, and the measurement temperature was set to 25° C. A chip produced by immobilizing Protein A. Protein A/G or mouse anti-human IgG kappa light chain (BD Biosciences) onto a Series S Sensor Chip CM4 or CM5 (GE Healthcare) by the amine-coupling method was used. […] After the measurement, the antibody captured on the chip was washed off by allowing reaction with 10 mM glycine-HCl, pH1.5 and 25 mM NaOH so that the chip was regenerated and used repeatedly. The sensorgrams obtained as measurement results were analyzed by the 1:1 Langmuir binding model using the BIACORE® Evaluation Software to calculate the binding rate constant ka (L/mol/s) and dissociation rate constant kd (l/s), and the dissociation constant KD (mol/L) was calculated from these values. […] Regarding such interactions, KD values were calculated using the following 1:1 binding model described in BIACORE® T100 Software Handbook BR1006-48 Edition AE.

[6] = molecular target: T2, cynomolgus monkey FcγRIIb extracellular …; test: SPR; KD of SG1 / KD of variant;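 note: relative to parent M103205H795-SG1 carrying the SG1 human heavy chain constant region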
Description: as §1

[7] = molecular target: T6, cynomolgus monkey FcγRIIIaS extracellular domain, C-terminal His-tag (cynomolgus monkey, UniProt Q8SPW2 21-206 at identity 1.00)); test: SPR; KD of SG1 / KD of variant;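 note: relative to parent M103205H795-SG1 carrying the SG1 human heavy chain constant region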
T6 construct: also called cyno FcγRIIIaS; FcgRIIIaS
T6 chain: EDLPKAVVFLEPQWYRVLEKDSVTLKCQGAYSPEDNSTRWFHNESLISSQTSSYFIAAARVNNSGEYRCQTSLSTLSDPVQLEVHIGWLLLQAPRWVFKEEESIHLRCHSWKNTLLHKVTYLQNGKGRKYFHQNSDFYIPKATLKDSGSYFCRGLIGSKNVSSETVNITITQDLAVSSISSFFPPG
Description: as §1

[8] = molecular target: T3, cynomolgus monkey FcγRIIa1 …; test: SPR; KD of SG1 / KD of variant;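 note: relative to parent M103205H795-SG1 carrying the SG1 human heavy chain constant region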
Description: as §1

[9] = molecular target: T4, cynomolgus monkey FcγRIIa2 …; test: SPR; KD of SG1 / KD of variant
Description: as §1

- biacore IC binding [1]: 1 relative to SG1 (=1.00)
B1: MS1032LO06-SG1 (M103205H795-SG1/M103202L889-SK1) (antibody, human IgG1, kappa)
heavy: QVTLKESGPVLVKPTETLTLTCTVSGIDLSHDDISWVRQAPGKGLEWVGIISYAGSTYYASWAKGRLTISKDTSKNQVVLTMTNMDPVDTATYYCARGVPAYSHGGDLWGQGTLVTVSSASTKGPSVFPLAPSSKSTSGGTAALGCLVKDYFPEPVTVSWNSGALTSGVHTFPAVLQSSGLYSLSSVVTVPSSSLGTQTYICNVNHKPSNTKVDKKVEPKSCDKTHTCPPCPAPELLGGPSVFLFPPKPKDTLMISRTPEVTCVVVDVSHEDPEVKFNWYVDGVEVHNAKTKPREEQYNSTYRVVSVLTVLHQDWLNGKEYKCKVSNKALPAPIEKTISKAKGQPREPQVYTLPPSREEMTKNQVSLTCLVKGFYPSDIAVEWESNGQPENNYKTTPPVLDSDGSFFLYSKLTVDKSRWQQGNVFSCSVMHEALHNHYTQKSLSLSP
light: DIVMTQSPATLSLSPGERATLSCTSSQSVYHANWLSWFQQKPGQPPKLLIYWASTLAYGVPSRFSGSGSGTDFTLTISSLQPEDAATYYCAGGYGGGRYAFGQGTKVEIKRTVAAPSVFIFPPSDEQLKSGTASVVCLLNNFYPREAKVQWKVDNALQSGNSQESVTEQDSKDSTYSLSSTLTLSKADYEKHKVYACEVTHQGLSSPVTKSFNRGEC
notes: Anti-latent myostatin antibody

- amount of FcgR binding (SG1 = 100) [2]: 100 SG1 = 100
- amount of FcgR binding (SG1 = 100) [3]: 100 SG1 = 100
- amount of FcgR binding (SG1 = 100) [4]: 100 SG1 = 100
- KD fold (SG1 = 1) [5]: 1 fold
- KD fold (SG1 = 1) [6]: 1 fold
- KD fold (SG1 = 1) [7]: 1 fold
- KD fold (SG1 = 1) [8]: 1 fold
- KD fold (SG1 = 1) [9]: 1 fold
B2: MS_M103205H795-SG1/M103202L889-SK1 (antibody, human IgG1, kappa)
heavy: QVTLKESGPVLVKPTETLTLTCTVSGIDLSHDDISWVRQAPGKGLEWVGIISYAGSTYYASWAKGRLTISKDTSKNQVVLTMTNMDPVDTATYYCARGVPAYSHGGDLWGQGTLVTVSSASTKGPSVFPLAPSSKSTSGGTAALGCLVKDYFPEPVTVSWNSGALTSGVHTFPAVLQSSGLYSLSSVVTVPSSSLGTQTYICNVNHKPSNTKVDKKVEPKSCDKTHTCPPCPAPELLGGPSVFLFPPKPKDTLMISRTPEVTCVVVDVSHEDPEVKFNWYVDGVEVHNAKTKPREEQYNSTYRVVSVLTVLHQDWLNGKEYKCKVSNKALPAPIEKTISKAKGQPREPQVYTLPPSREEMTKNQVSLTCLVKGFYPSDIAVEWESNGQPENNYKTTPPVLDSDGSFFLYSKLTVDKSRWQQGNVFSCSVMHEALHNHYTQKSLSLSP
light: B1 light
notes: also called MS1032LO06-SG1

- KD fold (SG1 = 1) [5]: 0.1 fold
- KD fold (SG1 = 1) [6]: 0.4 fold
- KD fold (SG1 = 1) [7]: 0.004 fold
- KD fold (SG1 = 1) [8]: 0.2 fold
- KD fold (SG1 = 1) [9]: 0.2 fold
B3: M103205H795-MY009/M103202L889-SK1 (antibody, human IgG1, kappa)
heavy: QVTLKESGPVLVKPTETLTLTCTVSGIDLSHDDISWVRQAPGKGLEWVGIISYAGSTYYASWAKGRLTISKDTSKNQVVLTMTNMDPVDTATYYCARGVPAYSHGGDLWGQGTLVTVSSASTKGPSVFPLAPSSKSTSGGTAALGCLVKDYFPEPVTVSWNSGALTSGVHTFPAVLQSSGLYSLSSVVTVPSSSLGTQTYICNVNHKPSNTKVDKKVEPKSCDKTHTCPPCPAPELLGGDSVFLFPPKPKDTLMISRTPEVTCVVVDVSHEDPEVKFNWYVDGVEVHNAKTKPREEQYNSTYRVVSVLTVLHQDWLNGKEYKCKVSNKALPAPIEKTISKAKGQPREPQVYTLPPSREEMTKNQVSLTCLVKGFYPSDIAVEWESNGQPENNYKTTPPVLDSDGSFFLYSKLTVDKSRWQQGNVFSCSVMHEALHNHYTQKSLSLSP
light: B1 light
notes: CH MY009 = SG1 with P238D (EU numbering); also called MS1032LO06-MY009
